Source: publication PMC3867001

Biological target: HIV-1 M group N-terminal capsid domain (HIV-1 M group) (UniProt P12493)
Experiment: ITC

Row | Substance | Kd [µM] | dH [kJ/mol]
1 | Cyclophilin A (unacetylated, recombinant) (from UniProt P62937 1-165) (enzyme) | 7.5 | -31
2 | Lys125-acetylated Cyclophilin A (recombinant) (from UniProt P62937 1-165) (enzyme) | 6.1 | -19.2
